The target in this assay is cell surface-associated mesothelin (UniProt Q13421). Kind of assay: flow cytometry titration of IgG1 m912 on H9 cells, medium fluorescent units. For orientation: Flow cytometry measures light scatter and fluorescence of single cells or particles in a stream.

IgG1 m912 (antibody) displayed a 50% binding of 5 to 10 nM.

Source of the values: US20110020361A1.
